Experimental data published in patent US20100068806A1, “NOVEL METHODS AND REAGENTS DIRECTED TO PRODUCTION OF CELLS” (SUOMEN PUNAINEN RISTI, VERIPALVELU, priority 2007, published 2010).
Entries after “also recorded” stand apart in the source; their conditions may differ.

Experiments:
hESC [1] = test: Fluorescein-labelled lectin staining of hESC colonies on mouse feeder layers; type: binding, human; parameters: key to lectin ligand profile, hESC: + present in cell surface; − not present in cell surface; settings: for inhibition of lectin binding to hESC by carbohydrate: MAA or PSA binding
Description: (§1) Lectin staining. Fluorescein-labeled lectins were from EY Laboratories (USA) and the stainings were performed essentially after manufacturer's instructions. The specificity of the staining was controlled in parallel experiments by inhibiting lectin binding with specific oligo- and monosaccharides.
(§2) From a practical perspective stem cell research would be best served by the identification of target structures on cell surface. To investigate whether individual glycan structures we had identified would be accessible to reagents targeting them at the cell surface we performed lectin labelling of two candidate structure types. Lectins are proteins that recognize glycans with specificity to certain glycan structures also in hESC (Venable et al., 2005). To study the localization of glycan components in hESC, stem cell colonies grown on mouse feeder cell layers were labeled in vitro by fluorescein-labelled lectins (FIG. 2). […] Such glycans would thus be available for recognition by more specific glycan-recognizing reagents such as antibodies. In contrast, the cell surfaces were not labelled by Pisum sativum agglutinin (PSA) that recognizes α-mannosylated glycans (FIG. 2b).
The glycome profile data was used to design glycan-specific labeling reagents for hESC. The most interesting glycan types were chosen to study their expression profiles by lectin histochemistry as exemplified in FIG. 5 for the lectins that recognize either α2,3-sialylated (MAA-lectin, FIG. 5A.) binding to the hESC cells or α-mannosylated glycans (PSA-lectin, FIG. 5B.) binding to the surfaces of feeder cells (MEF). The binding of the lectin reagents was inhibited by specific carbohydrate inhibitors, sialylα2-lactose and mannose, respectively (FIG. 5C. and 5D.).

[2] = system: hESC lines FES29 and FES30; test: hESC culture on lectin-coated plates in mEF-conditioned media; type: cell-based, human; parameters: key to Growth: +++: cells attach and can grow; cells attach and can grow but less cells/slower growth than +++; +: only few cells attach, one split; −: no cells after p1, cannot be splitted; #: less cells attach and slower early growth; settings: for Growth: culture experiment in mEF-conditioned media; for growth of hESC on coated plates: mEF-conditioned media
Excerpt: FES 30 hESC line was used. hESCs were transferred from mEF to Matrigel™ and cultured according to the protocol found on the Geron Corporation website at: http://www.geron.com/showpage.asp?code=prodstprot
All passages were done using collagenase. The passages were also done using PBS without collagenase treatment.
The cells were transferred to ECA-coated 12-well plates (Corning) and cultured in mEF-conditioned media for 5-11 days, whereafter they were divided 1:2 or 3:4. RNA samples were extracted from a cell sample every second or third passage and analyzed for expression of stem cell and differentiation markers (FIG. 31).
The ECA (EY Laboratories, USA; L-5901-5) coating was performed as follows for 12 well plates. ECA lectin was stored frozen as stock solution of 1 mg/ml. It was thawed on ice and diluted as 100 μl lectin stock+600 μl PBS, sterile filtered (Millex-GV, SLGV 013 SL, 0.22 μm) in laminar hood. This solution, i.e. 100 μg/700 μl PBS solution was applied to each well and incubated overnight at +4 C. On the following day lectin solution was removed and wells were washed with 3×1 ml of sterile PBS.
(§3) hESC were cultured at least two passages feeder-free on Matrigel (BD Biosciences, Bedford, Mass., USA) before plating on lectin. Matrigel-culturing was continued side by side lectin-culturing as comparison. Cells were cultured during the whole experiment in standard Knockout™ DMEM media with 20% Knockout™ Serum Replacement and 8 ng/ml of recombinant basicFGF (all from Gibco/Invitrogen, Paisley, UK; Mikkola M. et al. BMC Dev. Biol. 6:40, 2006) conditioned on mouse feeder cells for 24 h. Cells were detached with collagenase IV while splitting.
(§4) Lectins were diluted in PBS and sterile filtered before applying on Nunclon cell culture plates (Nunc, Roskilde, Denmark). The amount of lectin was 27 μg/cm^2 and plates were incubated over night at +4° C. Before splitting cells on lectin wells were washed three times with PBS.

[3] = system: SSEA-4 enriched human embryonic stem cells (hESC); settings: Venable et al. 2005; cited from earlier work
hESC [4] = test: Short (5 days) hESC culture on ECA types and conjugates; type: cell-based, human; parameters: key: +++: many cells attached on day 5; ++: scattered cells on day 5; +: few cells left on day 5; −: no attached cells after day 5; settings: day 5
[5] = system: Human Bone marrow-derived mesenchymal stem cells (MSC); test: Flow cytometry of CD105, CD45, CD73, HLA-DR in MSC grown on lectins; type: cell-based; settings: MSC grown on lectin
Description: Briefly, bone marrow obtained during orthopedic surgery was cultured in Minimum Essential Alpha-Medium (α-MEM), supplemented with 20 mM HEPES, 10% FCS, 1× penicillin-streptomycin and 2 mM L-glutamine (all from Gibco). After a cell attachment period of 2 days the cells were washed with Ca2+ and Mg2+ free PBS (Gibco), and subcultured at a density of 2000-3000 cells/cm2 in the same media on 24-well chamber slides coated with lectin molecules. Cells were crown at 37° C. with 5% CO2, fresh media was changed twice a week until near confluence. MSCs were cultured on lectin coated well plates for five passages. MSC passages 5-10 were used in the experiment.
Proliferating MSCs in passage 5 were grown on different lectins for 5 days. Cells were washed with PBS and harvested into single cell suspensions by Versene solution. Detached cells were centrifuged at 600×g for five minutes at room temperature. Cell pellet was washed twice with 0.3% BSA-PBS, centrifuged at 600×g and resuspended in 0.3% BSA-PBS. Cells were placed in conical tubes in aliquots of 50 000 cells each. Cell aliquots were incubated with antibodies in dilution of 2 μl/10^5 cells for 30 minutes at +4° C. in the dark. After incubation cells were washed with 0.3% BSA-PBS, centrifuged and resuspended in 0.3% BSA-PBS.
Unlabeled cells and cells grown on plastic were used as controls. Antibody binding was detected by flow cytometry (FACSAria, Becton Dickinson). Data analysis was made with FACSDiva™ Flow Cytometry Software Version 5.02.

RUNX2 = test: Quantitative RT-PCR of RUNX2 in MSC grown on lectins; type: cell-based, human
Excerpt: (§5) Total cellular RNA from the BM derived mesenchymal stem cells grown for five passages on selected lectins was extracted by using RNeasy miniprep-kit (Qiagen, Chatsworth, Calif.) according to the manufacturers's instructions. RNA was then reverse transcribed to cDNA with High Capacity cDNA Reverse Transcription reagents according to manufacturers instructions (Applied Biosystems) and used as a template in TaqMan® PCR reaction. TaqMan® PCR reaction was used to estimate the quantitative levels of stem cell differentiation markers. TaqMan® PCR reaction performed in standard conditions using TaqMan® Universal Gene Expression Master Mix (Applied Biosystems) and Pre-developed Inventored Gene Expression Assays for FABP4 (Hs00609791_m1) and RUNX2 (Hs00231692_m1) (Applied Biosystems).
(§6) Real time quantitative PCR reactions were performed with the ABI PRISM 7000 Sequence Detector System (Applied Biosystem) in standard conditions. PCR amplifications were performed in a total volume of 50 μl, containing 1 μl cDNA sample. TaqMan® Universal Gene Expression Master Mix (Applied Biosystems) was used in all experiments. Pre-developed Inventored Gene Expression Assays for FABP4 (Hs00609791_m1) and RUNX2 (Hs00231692_m1) (Applied Biosystems) were used to estimate the quantitative levels of stem cell differentiation markers. Pre-developed TaqMan® assay reagents for endogenous control human TATA-box binding gene labeled with VIC reporter dye (Hs 999999_m19) was used for amplification of control gene.
(§7) PCR was started with 2 min at 50° C. and the initial 10 min denaturing temperature was 94° C., followed by a total of 40 cycles of 15 s of denaturing and 1 min of annealing and elongation at 60° C.

FABP4 = test: Quantitative RT-PCR of FABP4 in MSC grown on lectins; type: cell-based, human
Excerpt: as §5, §6, §7

hESC (FES29) = test: FACS of Tra-1-60 and SSEA-3 in hESC cultured on lectins or Matrigel; type: cell-based, human
Description: as §3, §4

[6] = system: human embryonic stem cell (hESC) lines FES 22 and FES 30; test: FITC-lectin and antibody labelling of hESC, fluorescence microscopy; type: binding
mouse feeder cell (mEF) = test: FITC-lectin and antibody labelling of mouse feeder cells, fluorescence microscopy; type: binding; settings: fixed cells
[7] = system: bone marrow derived mesenchymal stem cells (BM MSC); test: FITC-lectin staining of fixed BM MSC, fluorescence microscopy; type: binding, human
mouse feeder cells (MEF) = test: Fluorescein-labelled lectin staining of mouse feeder cells in hESC culture; type: binding; parameters: key: + present in cell surface; − not present in cell surface; settings: MEF cell surface
Description: as §1, §2
The glycome profile data was used to design glycan-specific labeling reagents for hESC. […]

[8] = system: cord blood mononuclear cell (CB MNC); test: FACS analysis of FITC-lectin binding to cord blood mononuclear cells; parameters: species or system human; settings: seven CB MNC preparations
[9] = MSC grown five passages on lectin
[10] = start point (UEA-1/DSA/Galectin 1 experiment)

Molecule: CC(=O)N[C@H]1[C@H]([C@H](O)[C@H](O)CO)O[C@@](O[C@H]2[C@@H](O)[C@@H](CO)O[C@@H](O[C@H]3[C@H](O)[C@@H](O)C(O)O[C@@H]3CO)[C@@H]2O)(C(=O)O)C[C@@H]1O (some centres unmarked) [3′-sialyllactose]
- inhibition of lectin binding to hESC by carbohydrate (hESC [1]): blocks MAA binding
- inhibition of lectin binding to hESC by carbohydrate (hESC [1]; listed as α3′-sialyllactose): inhibited

Molecule: O=C[C@@H](O)[C@@H](O)[C@H](O)[C@H](O)CO [D-mannose]
- inhibition of lectin binding to hESC by carbohydrate (hESC [1]): inhibited; also recorded: blocks PSA binding

Molecule: Galectin-1 in solution: Galectin-1 added in solution, not immobilized
- Growth [2]: −
- growth of hESC on coated plates [2]: could not support the cell growth

Molecule: PHA-E: Phaseolus vulgaris lectin recognizing N-glycan core epitope (bisecting GlcNAc)
- lectin binding to SSEA-4 enriched hESC [3]: partially bind to hESC
- Growth [2]: +++#
- growth of hESC on coated plates [2]: weak

Molecule: PHA-L: Phaseolus vulgaris lectin
- lectin binding to SSEA-4 enriched hESC [3]: partially bind to hESC

Molecule: rGal-1: rGal-1, presumably recombinant galectin-1, coating in short hESC culture
- short (5 days) culting (hESC [4]): −

B1: Galectin-1: bovine Galectin-1, N-acetyllactosamine binding lectin (protein, UniProt P11116 2-135, looked up)
Galectin-1: ACGLVASNLNLKPGECLRVRGEVAADAKSFLLNLGKDDNNLCLHFNPRFNAHGDVNTIVCNSKDAGAWGAEQRESAFPFQPGSVVEVCISFNQTDLTIKLPDGYEFKFPNRLNLEAINYLSAGGDFKIKCVAFE
- CD 45 [5]: neg
- CD73 [5]: pos
- CD105 [5]: pos
- HLA-DR [5]: 23.8%
- RUNX- Endogenous control gene avarage Δct (RUNX2; [9]): 2.76
- Expression relative to plastic 2e − ΔΔCt (RUNX2; RUNX): 0.31
- ΔCt − Δctplastic relative ΔΔCt (RUNX2; RUNX, relative to plastic): 1.87
- Expression relative to plastic 2e − ΔΔCt (FABP4; FABP): 12.85
- ΔCt − Δctplastic relative ΔΔCt (FABP4; FABP, relative to plastic): −1.86
- FABP - Endogenous control gene avarage Δct (FABP4; [9]): 5.24
- passages hESC cultured on lectin ([2]; FES29): 7 passages
- Growth [2]: +++
- growth of hESC on coated plates [2]: also effective
- expression of SSEA-3 (hESC (FES29); FES29, after 7 passages): 32.3%
- expression of Tra-1-60 (hESC (FES29); FES29, after 7 passages): 21.6%
- SSEA-3 (hESC (FES29); p7): 32.3
- Tra-1-60 (hESC (FES29); p7): 21.6
- SSEA-3 (hESC (FES29); [10]): 89.2
- Tra-1-60 (hESC (FES29); [10]): 69.6

B2: PNA: peanut lectin, Gal/GalNAc structures (protein, UniProt P02872 24-273, looked up)
Galactose-binding lectin: AETVSFNFNSFSEGNPAINFQGDVTVLSNGNIQLTNLNKVNSVGRVLYAMPVRIWSSATGNVASFLTSFSFEMKDIKDYDPADGIIFFIAPEDTQIPAGSIGGGTLGVSDTKGAGHFVGVEFDTYSNSEYNDPPTDHVGIDVNSVDSVKTVPWNSVSGAVVKVTVIYDSSTKTLSVAVTNDNGDITTIAQVVDLKAKLPERVKFGFSASGSLGGRQIHLIRSWSFTSTLITTTRRSIDNNEKKIMNMASA
- labelling of hESC ([6]; fixed cells on mouse feeder layer): Abundant labelling
- specific binding, hESC versus mEF ([6]; hESC compared with mEF): bound specifically to hESC but not to mEF
- lectin binding to SSEA-4 enriched hESC [3]: high binding percentage
- labelling of mEF (mouse feeder cell (mEF)): absence of specific binding
- lectin ligand profile, hESC (hESC [1]; hESC cell surface): +
- lectin binding / labelling of BM MSC ([7]; FITC-labelled lectin, cell surface of cultured BM MSC): less intense labelling
- effect of sialidase treatment of the cells on lectin binding ([7]; sialidase treatment before lectin binding): also increased by sialidase treatment
- lectin ligand profile, MEF (mouse feeder cells (MEF)): −
- lectin binding to CB MNC [8]: variable binding between CB samples
